Data taken from publication PMC8754651 (2021).

B1: human RPB6 (residues 1–24) F13A (peptide)
peptide: MSDNEDNFDGDDADDVEEDEGLDD
B2: human TFIIH p62 PH domain (PH-D) (residues 1–108) (domain or fragment)
chain: MATSSEEVLLIVKKVRQKKQDGALYLMAERIAWAPEGKDRFTISHMYADIKCQKISPEGKAKIQLQLVLHAGDTTNFHFSNESTAVKERDAVKDLLQQLLPKFKRKAN

What was measured:
[1] = biological target: B2; test: ITC
[2] = biological target: human RPB6 (residues 1–127), full-length (human, UniProt P61218 1-127); test: NMR

Row | Kd [1] [µM] | Kd [2] [µM] | Binder
1 | 18.1 | – | B1
2 | – | 4.13 | B2
